According to patent publication US20050152896A1 (Amgen, published 2005):
Numbering of substitutions follows the chain as printed.

T1: murine galanin (mature, processed form) (murine, UniProt P47212 33-61, not fully specified)
T1 construct: mature
T1 peptide (looked up): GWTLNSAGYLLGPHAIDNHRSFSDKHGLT

T2: peptide of the 14 C-terminal amino acids of human galanin (human, UniProt P22466 49-62)
T2 construct: domain: 14 C-terminal amino acids of human galanin
T2 peptide (looked up): GNHRSFSDKNGLTS

T3: human galanin (mature, processed form) (human, UniProt P22466 33-62, 125I-labelled in the filtration and immunoprecipitation assays; biotinylated in the IGEN assay and in the BIAcore assay of Table 4)
T3 construct: mature; the assays used the mature peptide; also called biotinylated galanin
T3 peptide (looked up): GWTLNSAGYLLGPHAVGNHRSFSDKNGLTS

B1: murine monoclonal antibody 2E11 (antibody, V domains shown)
VH: EIQLQQSGAEVMKPGASVKISCKATGYTFSNYWIEWIKQRPGHGLEWIGEILPGSESTKYNEKFKGKATFTTDTSSNTAYMQLSSLTSEDSAVYYCATFYGGFDYWGQGTTLTVSS
VL: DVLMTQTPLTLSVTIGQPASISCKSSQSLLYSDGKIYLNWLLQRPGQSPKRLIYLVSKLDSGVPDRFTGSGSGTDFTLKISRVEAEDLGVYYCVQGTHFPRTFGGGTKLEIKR
notes: the legend is followed
B2: murine monoclonal antibody 4B3 (antibody, mouse IgG1, V domains shown)
VH: EIQLQQSEAELVKPGASVRLSCATSGFNIKDYYIHWVKQTTEQGLEWIGRIDPEDGETEYAPKFQGKATIAADTSSNTAYLLLNSLSSEDTAVYYCTRGYASWGQGTTLTVSS
VL: DVLMTQTPLSLSVSLGDQASISCRSSQSFVHSDGNTYLEWYLQKSGQSPKLLIYKVSNRFSGVPDRFSGSGSGTDFTLKINRVEAEDLGVYYCFQGSHVPYTFGGGTKLEIKR
notes: purified from ascites
B3: murine monoclonal antibody 2F8 (antibody, mouse IgG1, V domains shown)
VH: EVQLQQSGAELVRPGALVKLSCKASGFNIEDYYIHWVRQRPEEGLEWIGRIDPENGNTIYDPKFQGKASLTADTSSNTAYLQLSSLTSEDTAVYFCARGYVDWGQGTLVTVSA
VL: B2 VL with S12P, F29I, N35D, S45P, N81I, V90L, Y92F
B4: murine monoclonal antibody 1G12 (antibody, mouse IgG1, V domains shown)
VH: EVQLQQSGAELVKPGASVQLSCTASGFNIKDYYIHWVQQRTEQGLEWIGRIDPEDGEIEYAPKFQDKATITADTSSNTAYLQLSSLTSEDSAVYYCTRGYASWGQGTTLTVSS
VL: B2 VL with S12P, S28T, S45P, N81S
notes: The legend prints 'murine 1G2' for the VH
B5: murine monoclonal antibody 5B4 (antibody, mouse IgG2a, V domains shown)
VH: B3 VH with I34M, L70I, F95Y, A97V
VL: B2 VL with S12P, F29I, N35D, S45A, N81S, V90L
notes: purified from ascites; also called hybridoma 5B4C1 (ATCC PTA-5651)
B6: murine monoclonal antibody 1D7 (antibody, mouse IgG1, V domains shown)
VH: B2 VH
VL: B2 VL
notes: purified from ascites; also called hybridoma 1D7D1 (ATCC PTA-5650)
B7: Fab fragment of murine antibody 4B3 (Fab, V domains shown)
VH: B2 VH
VL: B2 VL
notes: Papain Fab of the hybridoma antibody; also called 4B3 Fab
B8: Fab fragment of murine antibody 5B4 (Fab, V domains shown)
VH: B3 VH with I34M, L70I, F95Y, A97V
VL: B2 VL with S12P, F29I, N35D, S45A, N81S, V90L
notes: Papain Fab of the hybridoma antibody; also called 5B4 Fab
B9: Fab fragment of murine antibody 1D7 (Fab, V domains shown)
VH: B2 VH
VL: B2 VL
notes: Papain Fab of the hybridoma antibody; also called 1D7 Fab
B10: murine monoclonal antibody 2H9 (antibody, mouse IgG1, V domains shown)
VH: B2 VH
VL: B2 VL
B11: murine monoclonal antibody 1A1 (antibody, V domains shown)
VH: EIQLQQSEAELVRPGALVKLSCKTSGFNIKDYYMHWVKQRPEQGLEWIGRIDPENDNSIYDPNFQGKASITADTSSNTAYLQLSSLTSEDTAVYYCVRGYVDWGQGTLVTVSA
VL: B2 VL with S12P, F29I, N35D, S45P, Y54F, N81S
notes: the legend is followed
B12: humanized 5B4 IgG1: light chain zu5B4 v04 with heavy chain zu5B4 v04 (antibody, V domains shown)
VH: EVQLVQSGAEVKKPGATVKISCKVSGFNIEDYYMHWVQQAPGKGLEWMGRIDPENGNTIYDPKFQGRVTITADTSTNTAYLDLSSLRSEDTAVYYCARGYVDWGQGTLVTVSS
VL: DVVMTQSPLSLPVTLGQPASISCRSSQSIVHSDGDTYLEWYLQRPGQSPMLLIYKVSNRFSGVPDRFSGSGSGTDFTLKITRVEAEDVGVYYCFQGSHVPYTFGGGTKVEIKR
notes: also called P1A7 (as IgG1); humanized 5B4-v4
B13: humanized 5B4 IgG1: light chain zu5B4 v13 with heavy chain zu5B4 v04 (antibody, V domains shown)
VH: B12 VH
VL: B12 VL with L42Q
notes: Human IgG1 / human kappa, expressed in E5 cells; VH of humanized 5B4-v4, VL of humanized 5B4-v13
B14: humanized 5B4 IgG1: light chain zu5B4 v04 with heavy chain zu5B4 v06 (antibody, V domains shown)
VH: B12 VH with M48I, V68A
VL: B12 VL
notes: Human IgG1 / human kappa, expressed in E5 cells; VH of humanized 5B4-v6, VL of humanized 5B4-v4
B15: humanized 5B4 IgG1: light chain zu5B4 v04 with heavy chain zu5B4 v13 (antibody, V domains shown)
VH: B12 VH with M48I, L81M
VL: B12 VL
notes: Human IgG1 / human kappa, expressed in E5 cells; VH of humanized 5B4-v13, VL of humanized 5B4-v4
B16: humanized 5B4 IgG1: light chain zu5B4 v05 with heavy chain zu5B4 v04 (antibody, V domains shown)
VH: B12 VH
VL: B12 VL with L42Q, L51S
notes: Human IgG1 / human kappa, expressed in E5 cells; VH of humanized 5B4-v4, VL of humanized 5B4-v5
B17: humanized 5B4 IgG1: light chain zu5B4 v04 with heavy chain zu5B4 v12 (antibody, V domains shown)
VH: B12 VH with V68A, N77D
VL: B12 VL
notes: Human IgG1 / human kappa, expressed in E5 cells; VH of humanized 5B4-v12, VL of humanized 5B4-v4
B18: humanized 5B4 IgG1: light chain zu5B4 v04 with heavy chain zu5B4 v11 (antibody, V domains shown)
VH: B12 VH with L81M
VL: B12 VL
notes: Human IgG1 / human kappa, expressed in E5 cells; VH of humanized 5B4-v11, VL of humanized 5B4-v4

Target: T1, murine galanin (mature, processed form)
Experiment: epitope mapping

Row | binding result | Binder
1 | binds | B1
2 | binds | B2
3 | binds | B3
4 | binds | B4
5 | binds | B5
6 | binds | B6

Target: T2, peptide of the 14 C-terminal amino …
Experiment: co-crystal structure

Row | binding result | Binder
7 | binds | B7
8 | binds | B8
9 | binds | B9

Target: T3, human galanin (mature, processed form)
Experiment: BIAcore SPR; biotinylated galanin on a streptavidin chip, MAb flowed
Procedure: The galanin binding assay uses the ORIGEN technology (IGEN, Gaithersburg, Md.) and measures solution state binding. 0.75 μg/ml biotinylated galanin and 2 μg/ml ORI-TAG anti-mouse IgG were preincubated with serially diluted MAbs. 0.4 mg/ml streptavidin-coated Dyna beads were added, incubated, and read on an IGEN M8 Analyzer. In the plasmon surface resonance assay, biotinylated galanin was bound to a streptavidin-coated sensor chip and MAbs allowed to pass through the flow cells in order to generate on and off rates. In every assay tested, the MAbs ranked in virtually the same order.

Row | Ka | Kd | Binder
10 | 5e+08 M⁻¹ | 2.1 nM | B1
11 | 1.4e+10 M⁻¹ | 0.07 nM | B2
12 | 6.8e+09 M⁻¹ | 0.15 nM | B3
13 | 9.3e+09 M⁻¹ | 0.11 nM | B4
14 | 7.5e+09 M⁻¹ | 0.13 nM | B5
15 | 6.7e+09 M⁻¹ | 0.15 nM | B10
16 | 1.5e+10 M⁻¹ | 0.09 nM | B6
17 | 2.5e+09 M⁻¹ | 0.4 nM | B11

Target: T3, human galanin (mature, processed form)
Experiment: BIAcore 3000; IgG captured by goat anti-human IgG Fc on CM5, human galanin peptide flowed; 1:1 Langmuir fit
Description: In terms of ELISA signal, the top 17 Fab fragments consisted of various combinations of three light chains and five heavy chains. For example, the heavy variable region of Fab P1A7 was identical to the heavy variable regions of Fabs R2E9 and R2E8. The five heavy variable regions were amplified by PCR and the PCR products were subcloned into a human IgG1 heavy chain mammalian expression vector, pVE414N. The three light variable region products were amplified by PCR and were subcloned into a human kappa light chain mammalian expression vector, pDC414N. The sequences of the heavy and light chains constructs were confirmed by DNA sequencing. Fab fragment P1A7 yielded the strongest ELISA signal. To determine which heavy or light variable regions might yield the highest affinity antibody, each heavy chain was co-expressed with the P1A7 light chain, and each light chain was co-expressed with the P1A7 heavy chain. These IgG heavy and light chain combinations were expressed in […] and were purified from the cell culture medium using protein A affinity chromatography. Affinities of these purified antibodies were measured on a BIAcore 3000. Goat anti-human IgG Fc antibody immobilized on CM5 sensor chips was used to capture P1A7 and the variants. Human galanin peptide was flowed over the chip surface with captured anti galanin antibody. The binding kinetics was analyzed using the model fit of 1:1 Langmuir+local Rmax+Mass Transfer. […] Antibodies with P1A7 light chain paired with the five different heavy chains yield nearly identical dissociation constants.

Row | Kd | koff | kon | Binder
18 | 1.8 nM | 0.0059 s⁻¹ | 3.3e+06 M⁻¹ s⁻¹ | B12
19 | 2 nM | 0.007 s⁻¹ | 3.5e+06 M⁻¹ s⁻¹ | B13
20 | 1.6 nM | 0.0051 s⁻¹ | 3.2e+06 M⁻¹ s⁻¹ | B14
21 | 1.8 nM | 0.005 s⁻¹ | 2.8e+06 M⁻¹ s⁻¹ | B15
22 | 2.3 nM | 0.0095 s⁻¹ | 4.2e+06 M⁻¹ s⁻¹ | B16
23 | 1.5 nM | 0.0048 s⁻¹ | 3.2e+06 M⁻¹ s⁻¹ | B17
24 | 1.7 nM | 0.0056 s⁻¹ | 3.2e+06 M⁻¹ s⁻¹ | B18
